Measured values taken from article PMC5871853, “First insights of peptidoglycan amidation in Gram-positive bacteria - the high-resolution crystal structure of Staphylococcus aureus glutamine amidotransferase GatD” (Scientific Reports, 2018).

T1: S. aureus GatD (Staphylococcus aureus, UniProt A0A0H2WZ38)
T1 construct: full-length, 243 residues; pOPINF vector, E. coli Lemo21(DE3), IMAC and SEC; crystallised without MurT; dimer in crystal non-physiological
T1 sequence (A0A0H2WZ38 1-243): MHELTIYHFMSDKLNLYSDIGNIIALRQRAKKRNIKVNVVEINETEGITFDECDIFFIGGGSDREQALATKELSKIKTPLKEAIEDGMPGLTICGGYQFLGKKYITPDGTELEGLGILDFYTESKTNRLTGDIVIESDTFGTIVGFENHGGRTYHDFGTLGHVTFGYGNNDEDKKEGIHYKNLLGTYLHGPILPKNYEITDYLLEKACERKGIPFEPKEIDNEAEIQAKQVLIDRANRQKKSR

T2: S. aureus GatD H189A (from pET28a-murT-gatD-His6H189A) (Staphylococcus aureus strain COL, UniProt A0A0H2WZ38 1-243, H189A)
T2 sequence: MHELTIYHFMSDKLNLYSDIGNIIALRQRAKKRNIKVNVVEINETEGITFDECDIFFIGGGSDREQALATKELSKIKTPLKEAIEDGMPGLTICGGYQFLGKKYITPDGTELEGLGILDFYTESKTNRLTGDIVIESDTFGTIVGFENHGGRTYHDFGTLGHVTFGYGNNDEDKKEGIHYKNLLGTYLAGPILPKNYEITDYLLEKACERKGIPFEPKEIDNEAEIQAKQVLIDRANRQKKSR

T3: S. aureus GatD R128A (from pET28a-murT-gatD-His6R128A) (Staphylococcus aureus strain COL, UniProt A0A0H2WZ38 1-243, R128A)
T3 sequence: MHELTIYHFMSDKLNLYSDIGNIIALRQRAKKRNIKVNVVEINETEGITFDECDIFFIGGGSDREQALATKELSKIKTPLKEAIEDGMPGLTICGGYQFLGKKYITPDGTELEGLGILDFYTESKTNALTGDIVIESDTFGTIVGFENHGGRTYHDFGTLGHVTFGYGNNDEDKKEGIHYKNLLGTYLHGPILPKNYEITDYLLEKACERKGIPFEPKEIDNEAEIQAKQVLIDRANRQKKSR

T4: S. aureus GatD C94A (from pET28a-murT-gatD-His6C94A) (Staphylococcus aureus strain COL, UniProt A0A0H2WZ38 1-243, C94A)
T4 sequence: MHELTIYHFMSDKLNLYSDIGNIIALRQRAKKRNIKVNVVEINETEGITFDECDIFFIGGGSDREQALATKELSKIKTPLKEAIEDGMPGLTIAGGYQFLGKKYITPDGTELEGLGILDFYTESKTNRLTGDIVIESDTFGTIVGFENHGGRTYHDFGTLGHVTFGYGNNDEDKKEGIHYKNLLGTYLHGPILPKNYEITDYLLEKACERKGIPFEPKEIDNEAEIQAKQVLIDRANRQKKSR

T5: S. aureus GatD wt (from pET28a-murT-gatD-His6) (Staphylococcus aureus strain COL, UniProt A0A0H2WZ38 1-243)
T5 construct: GatD, glutamine amidotransferase, Staphylococcus aureus strain COL, 243 amino acids; coding region amplified with murT as the murT-gatD operon; also called glutamine amidotransferase GatD
T5 sequence (looked up): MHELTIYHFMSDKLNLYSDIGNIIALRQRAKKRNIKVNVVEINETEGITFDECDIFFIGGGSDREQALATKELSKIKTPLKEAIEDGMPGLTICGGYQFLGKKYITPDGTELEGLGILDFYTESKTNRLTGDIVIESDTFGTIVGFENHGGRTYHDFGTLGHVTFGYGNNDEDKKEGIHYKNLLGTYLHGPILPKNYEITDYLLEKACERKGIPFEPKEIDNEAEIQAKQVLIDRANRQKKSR


Assays:
[1] = molecular target: S. aureus MurT-GatD complex (Staphylococcus aureus, UniProt A0A0H2WZ38); details: 875 µM Gln, 35 µM complex, no lipid II; 50 mM Tris-d11, 500 mM NaCl, 10 mM MgCl2, pH meter reading 7.9 in D2O, 293 K
S. aureus GatD = molecular target: T1, S. aureus GatD; assay: X-ray crystal structure, […] Å; format: binding; details: co-purified glutamine; bound at surface of chain A to R128, outside the active site; MurT absent
[2] = molecular target: T2, S. aureus GatD H189A (from …); assay: co-purification (IMAC + SEC, SDS-PAGE); details: partners not purified
[3] = molecular target: T3, S. aureus GatD R128A (from …); assay: co-purification (IMAC + SEC, SDS-PAGE); details: partners not purified
[4] = molecular target: T4, S. aureus GatD C94A (from …); assay: co-purification (IMAC + SEC, SDS-PAGE); details: partners not purified
[5] = molecular target: T5, S. aureus GatD wt (from …); assay: co-purification (IMAC + SEC, SDS-PAGE); MurT and GatD-His6 co-expressed in E. coli from one plasmid; HisTrap then Superdex 200 in 100 mM Tris-HCl pH 8.2, 500 mM NaCl, 10 mM MgCl2, 5 mM 2-mercaptoethanol; molar ratio read from a 12% SDS-PAGE gel of the final samples; details: partners not purified

Molecule | 1H-NMR glutaminase assay (Gln to Glu) [1] | X-ray crystal structure, 1.85 Å (S. aureus GatD) | stoichiometry N [2] | stoichiometry N [3] | stoichiometry N [4] | stoichiometry N [5]
NC(=O)CC[C@H](N)C(=O)O [glutamine] | MurT-GatD wt can convert glutamine into glutamate with a first order rate constant | S. aureus GatD crystallized in the presence of its substrate, glutamine |  |  |  | 
S. aureus MurT (enzyme, Staphylococcus aureus strain COL, UniProt A0A0H2WZQ7 1-437, looked up, MurT, Mur ligase family member of the MurT-GatD complex, Staphylococcus aureus strain COL; coding region amplified with gatD as the murT-gatD operon) MRQWTAIHLAKLARKASRAVGKRGTDLPGQIARKVDTDILRKLAEQVDDIVFISGTNGKTTTSNLIGHTLKANNIQIIHNNEGANMAAGITSAFIMQSTPKTKIAVIEIDEGSIPRVLKEVTPSMMVFTNFFRDQMDRFGEIDIMVNNIAETISNKGIKLLLNADDPFVSRLKIASDTIVYYGMKAHAHEFEQSTMNESRYCPNCGRLLQYDYIHYNQIGHYHCQCGFKREQAKYEISSFDVAPFLYLNINDEKYDMKIAGDFNAYNALAAYTVLRELGLNEQTIKNGFETYTSDNGRMQYFKKERKEAMINLAKNPAGMNASLSVGEQLEGEKVYVISLNDNAADGRDTSWIYDADFEKLSKQQIEAIIVTGTRAEELQLRLKLAEVEVPIIVERDIYKATAKTMDYKGFTVAIPNYTSLAPMLEQLNRSFEGGQS |  |  | 1 MurT:GatD molar ratio | 1 MurT:GatD molar ratio | 1 MurT:GatD molar ratio | 1 MurT:GatD molar ratio
